{
  "source": "paper PMC4935573",
  "key": {"[1]": {"target": "regulatory domain of human tryptophan hydroxylase 1, C64S (RDTPH1 C64S) (human) (UniProt P17752)", "assay": "SEC"}, "[2]": {"target": "regulatory domain of human tryptophan hydroxylase 1, C64S (RDTPH1 C64S) (human) (UniProt P17752)", "assay": "SEC", "remark": "listed apart in the source"}, "[3]": {"target": "regulatory domain of human tryptophan hydroxylase 1, C64S (RDTPH1 C64S) (human) (UniProt P17752)", "assay": "AUC"}},
  "note": "Several values for one entry are separate records, joined by “and”; a condition that tells them apart may be missing. Equal entries are not always repeated.",
  "data": [
    {"substance": "regulatory domain of human tryptophan hydroxylase 1, C64S (RDTPH1 C64S) (from UniProt P17752 1-101) (domain or fragment)", "values": [
      {"measurement": "stoichiometry N", "setting": "[1]", "value": 2},
      {"measurement": "stoichiometry N", "setting": "[2]", "value": "2 and 4"},
      {"measurement": "stoichiometry N", "setting": "[3]", "value": 2}
    ]}
  ]
}
